Earlier results in paper PMC3263801.

Target: hDM2 (Homo sapiens) (UniProt Q00987)
Sequence (Q00987 whole entry): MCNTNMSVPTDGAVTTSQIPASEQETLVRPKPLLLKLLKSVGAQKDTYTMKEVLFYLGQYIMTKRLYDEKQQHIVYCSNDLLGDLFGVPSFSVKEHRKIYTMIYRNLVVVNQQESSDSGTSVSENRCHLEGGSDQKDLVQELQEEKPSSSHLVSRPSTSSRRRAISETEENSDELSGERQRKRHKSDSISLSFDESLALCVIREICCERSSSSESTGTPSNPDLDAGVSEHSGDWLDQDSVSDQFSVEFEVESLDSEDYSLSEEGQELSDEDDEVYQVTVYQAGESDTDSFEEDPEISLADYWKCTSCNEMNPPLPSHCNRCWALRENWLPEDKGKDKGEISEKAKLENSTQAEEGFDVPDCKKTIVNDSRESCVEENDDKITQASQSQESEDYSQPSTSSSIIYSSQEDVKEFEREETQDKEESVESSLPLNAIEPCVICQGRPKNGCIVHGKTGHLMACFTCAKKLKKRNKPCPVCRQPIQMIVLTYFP

Kd: 0.9 nM
Substance: stapled p53 peptide (from UniProt P04637)
